Values quoted from earlier work as cited in US9631180B2, “Recombinant manganese oxidase” (OREGON HEALTH & SCIENCE UNIVERSITY, priority 2013, dated 2017).

B1: Fet3p S. cerevisiae: ferroxidase Fet3p from Saccharomyces cerevisiae, described in Stoj et al 2006 (protein, UniProt P38993 22-636, looked up)
Iron transport multicopper …: ETHTFNWTTGWDYRNVDGLKSRPVITCNGQFPWPDITVNKGDRVQIYLTNGMNNTNTSMHFHGLFQNGTASMDGVPFLTQCPIAPGSTMLYNFTVDYNVGTYWYHSHTDGQYEDGMKGLFIIKDDSFPYDYDEELSLSLSEWYHDLVTDLTKSFMSVYNPTGAEPIPQNLIVNNTMNLTWEVQPDTTYLLRIVNVGGFVSQYFWIEDHEMTVVEIDGITTEKNVTDMLYITVAQRYTVLVHTKNDTDKNFAIMQKFDDTMLDVIPSDLQLNATSYMVYNKTAALPTQNYVDSIDNFLDDFYLQPYEKEAIYGEPDHVITVDVVMDNLKNGVNYAFFNNITYTAPKVPTLMTVLSSGDQANNSEIYGSNTHTFILEKDEIVEIVLNNQDTGTHPFHLHGHAFQTIQRDRTYDDALGEVPHSFDPDNHPAFPEYPMRRDTLYVRPQSNFVIRFKADNPGVWFFHCHIEWHLLQGLGLVLVEDPFGIQDAHSQQLSENHLEVCQSCSVATEGNAAANTLDLTDLTGENVQHAFIPTGFTKKGIIAMTFSCFAGILGIITIAIYGMMDMEDATEKVIRDLHVDPEVLLNEVDENEERQVNEDRHSTEKHQFLTKAKRFF
B2: Fet3p C. albicans: ferroxidase Fet3p from Candida albicans, described in Ziegler et al 2011 (protein, UniProt P78591 21-624, looked up)
Iron transport multicopper …: AETHTWYFKTGWVDANPDGVYPRKMIGFNDSWPLPTLRVKKGDRVQLYLINGFDNLNTTLHFHGLFVRGANQMDGPEMVTQCPIPPGETYLYNFTVTDQVGTYWYHSHTGGQYGDGMRGVFIIEDDDFPYHYDEEVVLTLSDHYHKYSGDIGPAFLTRFNPTGAEPIPQNFLFNETRNATWKVEPGKTYFVRILNVGGFVSQYLWMEDHEFTIVEIDGVYVEKNTTDLIYITVAQRYGVLITTKNSTDKNYVFMNGVDTTMLDSVPADLQVNGTNYIVYNESSALPDAYDIDSYDDALDDFYLKPLSKQKLMDDADYTITVDVQMNVLNDGINYAFFNNISYKAPKVPTLLTVLSAGEAATNELIYGTNTNSFVLQGGDIVDIVLNNFDTGKHPFHLHGHVFQLIERHEAIGSKESAVTFNVSDHAEWPEYPMIRDTVYVKPHSYMVLRFKADNPVVWFFHCHVDWHLEQGLAVVLIEDPQAIQKNEKITENHKRICEKVGVPWEGNAAANSNDYLDLKGENVQVKRLPTGFTTKGIVALVFSCVAAFLGLFSFSFYGMNDIAHVEDKVARDLDIDLEAENEDEEEAVVLNQNSSSSDSNSKPH

Conditions: literature values for Fet3p ferroxidases, cited from earlier work; for Km: read-out: Fe(II) KM

Row | Molecule | Fe(II) kcat [s⁻¹] | Km [µM]
1 | B1 | 0.835 ± 0.023 | 4.9 ± 0.8
2 | B2 | 1.06 ± 0.02 | 7.9 ± 0.5
